According to publication doi:10.1101/2023.05.01.538930 (bioRxiv, 2023):

Tests used:
[1] = molecular target: T1, GajA of the Gabija system from Bacillus cereus VD045 (Bacillus cereus VD045, UniProt J8H9C1 1-578); test: reconstitution of the complex from purified proteins
T1 sequence (looked up): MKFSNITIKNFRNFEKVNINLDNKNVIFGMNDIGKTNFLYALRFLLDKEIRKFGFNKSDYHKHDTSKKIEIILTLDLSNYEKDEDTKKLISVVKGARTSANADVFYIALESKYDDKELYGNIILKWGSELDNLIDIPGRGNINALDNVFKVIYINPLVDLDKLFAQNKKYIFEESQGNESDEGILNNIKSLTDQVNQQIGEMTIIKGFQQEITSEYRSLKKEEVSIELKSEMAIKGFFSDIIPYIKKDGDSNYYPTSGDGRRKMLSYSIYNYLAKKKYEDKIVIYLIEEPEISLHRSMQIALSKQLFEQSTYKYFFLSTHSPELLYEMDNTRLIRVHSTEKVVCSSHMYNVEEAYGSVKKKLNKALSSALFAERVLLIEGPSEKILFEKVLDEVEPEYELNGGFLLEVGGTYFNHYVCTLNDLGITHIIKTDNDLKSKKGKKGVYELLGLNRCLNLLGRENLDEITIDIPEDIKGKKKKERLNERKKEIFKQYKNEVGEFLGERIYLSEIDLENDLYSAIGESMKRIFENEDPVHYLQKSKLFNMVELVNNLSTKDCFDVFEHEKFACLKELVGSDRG

crystal structure = molecular target: the molecule itself; test: crystal structure

B1: GajB of the Gabija system from Bacillus cereus VD045 (natural protein, UniProt J8HQ06 1-494, looked up)
chain: MSREQIIKDGGNILVTAGAGSGKTTILVSKIEADLKENKTHYSIAAVTFTNKAAKEIEGRLGYSSRGNFIGTNDGFVESEIIRPFIKDAFGNDYPDNFTAEYFDNQFASYDKGLQVLKYQNILGTYSNPKKNFKFQLALDILKKSLVARQYIFSKYFKIFIDEYQDSDKDMHNLFMYLKDQLKIKLFIVGDPKQSIYIWRGAEPENFNGLIENSTDFNKYHLTSNFRCCQDIQNYSNLFNEETRSLIKEKNEVQNVISIADDMPISDILLKLTEEKQVLNIEAELVILVRRRNQAIEIMKELNEEGFNFIFIPQTPLDRATPNATLLKEVIKYVKNDRYSIYDLAAEIVGNLSSREIKEIQKIINELLVPNINQVLINQVLINLFAKLEITLDTREITAFTEVMMTNEFDIAFDTNEYLHKIFTVHSAKGLEFNQVIITASDYNVHYNRDTNEHYVATTRAKDKLIVIMDNKKYSDYIETLMKELKIKNIIKSI
- binding result [1]: binds

B2: Tad2 from phage SPO1 (construct for crystallization) (natural protein, Bacillus phage SPO1)
chain: MKTKMSFGEALEVLKQGMQVYRSGWNGKNMFLFLKSSDALASDFGFGFGEYINEPVFGNIIFIKTADNKIHAWVPSQTDVLAEDWDIVS
- stoichiometry N (crystal structure): 4
